Results on one variant are retold here after IntAct's records for PubMed 24792722.

B1: Rho guanine nucleotide exchange factor 7 (Homo sapiens), Q14155 (parent)
chain: MNSAEQTVTWLITLGVLESPKKTISDPEGFLQASLKDGVVLCRLLERLLPGTIEKVYPEPRSESECLSNIREFLRGCGASLRLELLFPPSQPPQHLVTTILLSASTFDANDLYQGQNFNKVLSSLVTLNKVTADIGLGSDSVCARPSSHRIKSFDSLGSQSLHTRTSKLFQGQYRSLDMTDNSNNQLVVRAKFNFQQTNEDELSFSKGDVIHVTRVEEGGWWEGTLNGRTGWFPSNYVREVKASEKPVSPKSGTLKSPPKGFDTTAINKSYYNVVLQNILETENEYSKELQTVLSTYLRPLQTSEKLSSANISYLMGNLEEICSFQQMLVQSLEECTKLPEAQQRVGGCFLNLMPQMKTLYLTYCANHPSAVNVLTEHSEELGEFMETKGASSPGILVLTTGLSKPFMRLDKYPTLLKELERHMEDYHTDRQDIQKSMAAFKNLSAQCQEVRKRKELELQILTEAIRNWEGDDIKTLGNVTYMSQVLIQCAGSEEKNERYLLLFPNVLLMLSASPRMSGFIYQGKLPTTGMTITKLEDSENHRNAFEISGSMIERILVSCNNQQDLQEWVEHLQKQTKVTSVGNPTIKPHSVPSHTLPSHPVTPSSKHADSKPAPLTPAYHTLPHPSHHGTPHTTINWGPLEPPKTPKPWSLSCLRPAPPLRPSAALCYKEDLSKSPKTMKKLLPKRKPERKPSDEEFASRKSTAALEEDAQILKVIEAYCTSAKTRQTLNSTWQGTDLMHNHVLADDDQPSLDSLGRRSSLSRLEPSDLSEDSDYDSIWTAHSYRMGSTSRKSCCSYISHQN

The assay covers variants of B1. Particulars: with rac1_human RAC1, P63000.
In the case of P340E, the “effect of a mutation on the interaction” value was “increasing interaction”.
